From patent US20190270798A1 (CHILDREN S MEDICAL CENTER, published 2019) come the findings set out here.

For test [1], the target named is T1, human Glycoprotein A Repetitions Predominant (GARP) (human, UniProt Q14392 20-662).
T1 construct: whole, on cells; tested in cell lysates; also called LRRC32; FLAG-tagged GARP
T1 sequence (looked up): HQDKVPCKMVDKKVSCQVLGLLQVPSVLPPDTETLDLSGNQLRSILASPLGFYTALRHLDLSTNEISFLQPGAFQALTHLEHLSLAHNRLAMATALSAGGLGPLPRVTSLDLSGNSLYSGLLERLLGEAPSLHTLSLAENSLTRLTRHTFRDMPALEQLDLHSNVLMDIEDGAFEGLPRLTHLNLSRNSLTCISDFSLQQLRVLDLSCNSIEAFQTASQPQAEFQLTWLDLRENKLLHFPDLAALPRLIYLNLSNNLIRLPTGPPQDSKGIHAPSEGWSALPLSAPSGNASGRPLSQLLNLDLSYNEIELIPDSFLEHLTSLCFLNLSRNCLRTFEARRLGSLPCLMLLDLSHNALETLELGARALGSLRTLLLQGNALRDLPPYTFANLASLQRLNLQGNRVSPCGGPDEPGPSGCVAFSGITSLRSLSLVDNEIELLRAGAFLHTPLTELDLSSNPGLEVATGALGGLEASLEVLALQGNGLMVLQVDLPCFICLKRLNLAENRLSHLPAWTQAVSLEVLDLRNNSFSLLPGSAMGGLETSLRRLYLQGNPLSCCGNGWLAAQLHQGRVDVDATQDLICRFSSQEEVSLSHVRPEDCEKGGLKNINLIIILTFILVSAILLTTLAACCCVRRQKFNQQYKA
In words: immunoprecipitation from L1.2 transfectant lysates, blot. On the procedure: Cell surface expression of FLAG-LRRC33, FLAG-33-32-X1, and FLAG-33-32-X5 were measured using FACS. Numbers show the MFI (mean fluorescence intensity). (B, C) The specificity of anti-LRRC33 antibody.
Anti-LRRC33 mAb was generated by immunizing Lac33^{-/-} mice with L1.2 cells that stably express the 33-32-X1 chimera on the cell surface. Hybridoma supernatants were screened by immunofluorescence flow cytometry (FACS) and an LRRC33 positive hybridoma was identified. This anti-LRRC33 mAb only recognizes human LRRC33, not GARP, in L1.2 transfectants by immunoprecipitates (IP) (FIG. 8B, line 2, 3).
After 48 hours of transfection, cells were collected and lysed in IP lysis buffer (50 mM Tris pH7.4, 150 mM NaCl, 2 mM EDTA, 1% NP-40), which was supplemented with a protease inhibitor cocktail (Roche) and subjected to western blot analysis or were used for immunoprecipitation with the indicated antibody. Performed as described previously {Wang et al, 2012}. L1.2 cells were transfected with indicated plasmid using electroporation. […]

Another test has as its target T2, mouse LRRC33 (mouse, UniProt Q8BMT4 20-693, limits assumed).
T2 construct: also called mouse LRRC33 complexes
T2 sequence (looked up): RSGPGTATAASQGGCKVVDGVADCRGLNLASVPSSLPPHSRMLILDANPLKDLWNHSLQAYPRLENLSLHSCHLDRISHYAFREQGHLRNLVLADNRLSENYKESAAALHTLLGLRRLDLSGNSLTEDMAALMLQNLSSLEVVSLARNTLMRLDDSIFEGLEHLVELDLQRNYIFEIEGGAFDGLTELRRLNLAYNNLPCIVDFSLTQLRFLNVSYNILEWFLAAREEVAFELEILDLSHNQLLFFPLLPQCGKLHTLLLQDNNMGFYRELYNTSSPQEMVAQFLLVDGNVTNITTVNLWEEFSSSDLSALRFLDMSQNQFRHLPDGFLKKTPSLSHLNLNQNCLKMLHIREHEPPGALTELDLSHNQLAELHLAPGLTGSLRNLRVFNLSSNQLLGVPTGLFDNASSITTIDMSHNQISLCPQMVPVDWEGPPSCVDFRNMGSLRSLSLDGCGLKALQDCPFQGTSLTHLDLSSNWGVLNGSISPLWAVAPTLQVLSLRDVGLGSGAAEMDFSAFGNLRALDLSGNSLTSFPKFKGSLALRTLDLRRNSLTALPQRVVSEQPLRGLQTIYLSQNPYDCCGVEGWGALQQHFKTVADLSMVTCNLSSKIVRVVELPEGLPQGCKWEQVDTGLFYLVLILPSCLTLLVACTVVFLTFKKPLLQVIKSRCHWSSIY
In words: immunoprecipitation from 293T transfectant lysates, blot.

B1: anti-LRRC33 monoclonal antibody (mAb) (antibody, V domains shown)
VH: EFQLQQSGPELVKPGASVKMSCKASGYSFTDSYMDWVKQSNGKTLEWIGLINPKYGTTTYNQKFKGKATLTVDQSSSTAYMQLNSLTSEDSAVYFCASLYYDYSAWFAYWGQGTLVTVSA
VL: QAVVTQESALTTSPGETVTLTCRSSTGAVTTSNYANWVQEKPDHLFTGLIGGTNNRAPGVPARFSGSLIGDKAALIITGAQTEDEAIYFCGLWFSNRWVFGGGTKLTVV
notes: Mouse hybridoma mAb raised in Lrrc33-/- mice against L1.2 cells expressing the 33-32-X1 chimera; also called anti-LRRC33 mAb; anti-LRRC33 antibody
For the molecule B1, the binding result (in test [1]; with mouse LRRC33) was “no binding” each time.
